Assays:
[1] = target: H2A/H2B dimer (UniProt P06897;P02281); assay: ITC
[2] = target: H3/H4 tetramer (UniProt P84233;P62799); assay: ITC

B1: AtFKBP53 NTD (residues 1–112) (domain or fragment)
chain: MGFWGLEVKPGKPQAYNPKNEQGKIHVTQATLGTGLSKEKSVIQCSIGDKAPIALCSLLPNKIECCPLNLEFDDDDEPVEFTVTGDRSIHLSGFLEYYQDDEDDYEHDEDDS
Q: Which “stoichiometry N” value [1] does the source give for B1 here?
A: 1

Q: And the “stoichiometry N” value [2]?
A: 1

— PMC7026663 (Nucleic Acids Research, 2019)
